In publication PMC4205851, “Protein-tyrosine phosphorylation interaction network in Bacillus subtilis reveals new substrates, kinase activators and kinase cross-talk” (Frontiers in Microbiology, 2014):

Target: T1, Strep-tagged MinD (B. subtilis 168, UniProt Q01464 1-268)
T1 construct: MinD ATPase of B. subtilis 168, PCR fragment in a pQE-30 vector with the His6-tag replaced by the strep-tag; Pre-labelled with Strep-Tactin conjugated to horse radish peroxidase for the far-Western
T1 sequence (looked up): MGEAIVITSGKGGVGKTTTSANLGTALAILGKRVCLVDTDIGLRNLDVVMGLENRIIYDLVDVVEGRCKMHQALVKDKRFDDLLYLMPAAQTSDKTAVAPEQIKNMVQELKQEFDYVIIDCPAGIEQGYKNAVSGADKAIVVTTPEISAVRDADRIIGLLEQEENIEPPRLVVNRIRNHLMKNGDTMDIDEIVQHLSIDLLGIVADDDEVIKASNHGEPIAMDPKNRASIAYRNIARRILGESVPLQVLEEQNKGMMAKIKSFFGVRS
Assay: far-Western; PtkA, MinC and TkmA separated by 12% SDS-PAGE, transferred to nitrocellulose and renatured; probed with Strep-tagged MinD labelled with Strep-Tactin-HRP in TBS-T (50 mM Tris pH 7.5, 150 mM NaCl, 0.05% Tween 20) with 1% BSA; AEC staining
Conditions: both partners purified

binding result: binds
B1: MinC (purified) (natural protein, B. subtilis 168, UniProt Q01463 1-226, looked up)
chain: MKTKKQQYVTIKGTKNGLTLHLDDACSFDELLDGLQNMLSIEQYTDGKGQKISVHVKLGNRFLYKEQEEQLTELIASKKDLFVHSIDSEVITKKEAQQIREEAEIISVSKIVRSGQVLQVKGDLLLIGDVNPGGTVRAGGNIFVLGSLKGIAHAGFNGNNQAVIAASEMLPTQLRINHVLNRSPDHIQKGNEMECAYLDTDGNMVIERLQHLAHLRPDLTRLEGGM
notes: MinC of B. subtilis 168
